Measurements from the supplement of paper PMC12636428.

These sequences were tested on Saccharomyces cerevisiae (assay: transcriptional activation domain activity (GFP:mCherry ratio, weighted mean of sorted bins, harmonized to initial dataset scale) (arbitrary fluorescence ratio units); higher = stronger transcriptional activation). Details: beta-estradiol 1 µM; induction time 4 h.
Method in brief: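 Activation activity, the read-weighted mean of bin median fluorescence averaged across barcodes, was linearly mapped onto the scale of the initial dataset. It was measured for barcoded protein tiles fused to an estradiol-inducible synthetic transcription factor at URA3 in GFP-reporter yeast diploids. Cultures diluted 1:5 into SC with 1 uM beta-estradiol were held 4 hours at 30 °C, sorted into 8 bins by GFP:mCherry ratio, and barcode-sequenced, and tiles under 50 reads were discarded.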

Sequence | transcriptional activation domain activity
RVPWSSAISKRLQTYHEMLQSFPFVWRMIKDVLGLKSCRYLLVLYLFCEAVTS | 62000
KSVSRLHAKIEYDQEEDRFVLLVVGRNGAWVDGVWSASGTRACLGERSQIQIA | 42000
LDDLKLQPIINRYRNCKGLSPSDLRLSLDQLKCLNHQFSVIILRILFKHCPLY | 72900
EGTGYITVSSGTRYVRLVGARGEEGEGVFGGGRRRRVEVVDFSRARVRAAQIG | 49000
DVDWWNVSSSETTFDAASLPLDVWDPLLPHDTGLSEIEVTTCWLDPWIIPFIT | 132000
MNPPDNIIILPFHPLPFFWLLIFIPFSLSLPSSFFFNSNLSFLFFFFVFCFMI | 68600
MCLLGDGRHPEFFYFLFFIPFDFLLHLLFYPRAFSRYLFIWMGCLNCFYFGLA | 56200
FGHVINEFVLSTFLTDQCHKIPQDTVNAYFEDCSTISTSQILMLLYILTFNDY | 60700
SKPSSNGRSDCSKHSTGKDASNKKNNRGKSKKAKKKTAAAKANTTDNESDSSD | 33600
GWAFGTKNEDGFQLFDCTGEALGVILRLSHILRHVTTFWRLRTAVDLLLQAQC | 58900
MLLTVYMFIIVFSFFICYHYINLVLQILIAGLLYGLSYVRFSMNWIIYFYNQC | 78400
GVMIVRKRLLIAIATVYGSPDRGLRRIIQSIGKVLWRHGLLSDQFYSAGEIFS | 69800
AVTCMTIFATISLKLNQQDMLTPWYTSLPLHRRLLHQWFCGLLHWMGFYLVWS | 65900
QHLRSDPQMRLWLVMFLFLTFMVHTILSATLSIIFVSITYSLFWLPQIVRSAR | 30800
EIPIQLGCIHLHSLWMTYALLYQLIYPMMMIYNLVNCIYFGSGLQIAWWMFSI | 44200
MAPQRRPAAEVISSDSDDEAARPTGSAATRSAGGGGAGGGRRIVLTGRGNNSS | 20400
EFILHTMPVVAIKDTHAWNGNTPVELGLLGFWNLIVVWLKLLIPWRFFRLWAL | 63800
MAEKRATSTAPGPSTSLQRGKACLRCRKRKMRCDGSKPACQQCVRAKKADGCE | 21500
MLSGLRHLRDEHIFAAAVGFFSHIYYYRYGEHHMQAPLLFWMHISVFLMLFYW | 40100
ADCAVIGVVSEEEATELPRAYVVHAKGIPPSEHEAFGVSVQEWIKSRVARHKQ | 53600
EQAPREGQGQGRGRGGRPRGEGRGRGGRGRGRGAPAGNGAAEAAATTAPKSTE | 21700

Sequence | transcriptional activation domain activity
MILHSSYLPLGVPPFSIYYILHTLGHSINKITKLLLSNLILRFLNCCTQLIVR | 53400
GSWMILRILLHQLLDSVQYIPEYKDIAALRYRGPTYYFQELQKAFYHVLDAVP | 65200
FLTAIPAVPFAGGLSFNILLLFHHSLPFAGFLAHGFYRIIFPITLFFLPIFML | 52900
MVIFRLGSAPFFFLLFLFVLFFRFFFLVCCCLYGWVSVFLLLFFLRFFVSKWG | 50700
ILVGGFGLELGMNGVYPWYIFLFLACLASDFEFTMLFELTVGFFFPPLLFMCL | 51800
ESVSESESASASESAAEEASAAPEEDAMWSNIMKKFARRDEEESVSESASASE | 54900
APFFLPPFHFFFPFFPFPFFLGSFPFLFSFPFPFSFPFFLFHFPSFFPFLPSF | 65400
TSSPSAQTAASTTVVLVIGSDDKKVKEVGDELKTKLNVKGGGKGPRWSGKFTG | 24700
AAPKAKATTAKAKATTTKKATTAKASTTKKAAAAKPKANASKPRKAAAATAAA | 38600
MLPHCIVIIGILFSLLSDVYLYLESSLIHKVHLSSIPGTLLWHPAFFLCILCK | 55800
ALKILVLLVFIMDTLHTYGIISYQWGLFLYCHHNASFACLSDLPWEVFMCVAL | 41200
MGLGVLYHLSLLFPFLFFFLSLLFFSLLSSSFFLLWLFPISCLGFIVLFWTGS | 22200
RLILILSLLVCWAAAIIDCVFVIIAGVTGVLQPQSRYLVLLLPMLFTNFLATL | 57300
MTGRHLWGIGVLFLPLLFFLLDFPFFSFSFLLMCLCEILSIFFWLHFSLGREG | 44900
NLVRCYYYYGYFGLQSCMVHVFLWFMWWIFLLSSRPLQSTPLSIIWRIILYQA | 29700
SVTSTEELEITVETLRELAAHPAVIKGKQCRELRGAVHEFRQACTTGVNAAGT | 53600
LHSFRRQNGFIRLNIWDLNPSPKILQLYLLTQTIKRYIVLCLLLNLGFTIAQC | 60700
LNDDDIEKILQPNDIFTTDRTDASTTSSTAIEDIINPSLDPQSAASPVPSSSF | 81400
YRALHQRIWDEGLYECNYRAYAIECTRYVLLFTLMWVCLYFQRYFLGAFFLGA | 83700
PAPAAAAASSSTATEKASGEQQPRESKRNPRHRNKRGRDNKDKDGKEGAGGKS | 28100
EAAVTSDDEAGPAKKAKRGSVFEKFGGKFKSHKAAEKEPEAKEEAKEEEAKPA | 14000

Sequence | transcriptional activation domain activity
GLVYMIGVYSISGLDRTLQMIHAILHVNFNSLVHKKGITHSCLLWLILIFFGL | 48000
MCRTLISFSLFVGVFILTSIRFFCLSLFFLSSFIFYFTLLLFFLLFLSGLFDL | 50300
SQPSDTIRKRTAGDDGALDQTENTSISPKKRRTEDHTKGEEDEGERGVGNSGT | 22200
ESSEEDEEGGEGEGRKAKRNRMALSCKECKRRKIKCDRAMPSCGPCSKRGASS | 27200
MDDTDSSAAGGARWIVVSTGGRAQSPEDEAGLRRVKGACRARQNKSKNAILIH | 47100
EGGEGGDGAGGDGAAAGGKDGEGGKGGGKEEKGGKAGKDAKGGAKKPGSGKKG | 16500
DDTGEEEQPPPASNSSAGVATSTTVVPQQLPARYRLRAFISHKGPSVHSGHYV | 29800
FSFFFFLFSLFLSFPSFLLPSFLLLFLSFYFSPSYLLLCLFSLIFYKLWPLFL | 25500
NSTIHNLFEVVLLPDLCGFCCFSMRFVVLIDLIGTLTLPVSVVYLVYLIYVIA | 46800
LFTFRLLRICGPFVARLPSAERLLGWSTLASILGLWWNPRFAQVFRGFTRHIS | 61800
SERLKNTGASGERAREGISINAGLASLGKVISQLSSRQPGAHVSYRDSKLTRL | 48800
RVLNLTIHCAIWVRLYASLAWQKFADTLVHLELQFFTSSVLRAIPQNVCCRHL | 38100
MGLWARFFCFVIVCFQITFLYCLLSFSPSFLDLQKIQPLFFTFFFFLLLSLFP | 43200
PLIPHVLPSLFPCPLFLPLFPPSPLLSPFPPSLCFPLPPFFLFPPLPLFPPFL | 25600
RVFLFRLMLSLIYTFLGSLCVTGAVWAYRVNWKVNGNQFVLSWMAIWLFAHCN | 44800
MCEQHTCLFVLLSVKLLLWRLLFFVESSFLDGMELVLTGRWWAYYIYLWCLTV | 54400
DLYNHSYRLHRRKRPGMKEVYLSAMGFRMMGVKGFREWSFLWRVRLAAAPWWA | 52600
RLCPRLGLVELFFKNSAELSKVLKALGAAAATTLCTVVFPGYSHRLSFLQWYP | 62400
MSRKIYCTPAFSTIHLLYLHNFFLIPIYYLQTSLRNILSKLSFCLILSILLLP | 52900
FVARLFQSLRRWWDSGLTTHLINASLFFISDGGKYFMGILCYFFQHLWRHHGM | 47900
GAVARAAHAAAPAGVRAAAPAPAGVHALAPAGAHALVHAPARAGPARALVLAG | 48800

Sequence | transcriptional activation domain activity
LDSYPNVLTFAVYTYLRLIPEHRHIQLATLQQREIRFVVSMLRQKWNLCAVIG | 30100
KTDKSKDRKTKKKKSHKATGSERPSSSRGEEPEKDEEPEKKEKRRKKRKEEKR | 17900
VGETVVTFCYEDGIMVMAMVGSGFMGYYLYTLQVKHSFSGPGPWFLGMALICL | 68700
QLKVVRITFSGLGAVALTICPCTPVVEQLLQAVHLKVLYLVKELFVCIPPNTS | 48500
MYHISIQLLSVFISPSTPLFPDFLQISISFHLYSFFLFAIVIFFYFICLFLFV | 61100
YHFCYHLRLYLYAFQPPLFLRLCHFFSYDGWYLGFTWGFFLFFRFHFPIPSFL | 45900
SKHEDQKSRRSRDEKDRGSRSSRHREDGHRSHRDRSRSRDRHHRSSKHHERRR | 27700
SVSRLHAKIEYEEEEERFVLVVVGRNGAWVDGVWSGAGSRVPLCERSQIQIAS | 45800
CKAHCGYILGHINIFQPLNWIFVKSSKVFPIDYILYLLLVLFFFCSSVVGIAT | 28100
LWELLLNILKENGAKEKCILPCIVDFLPKNLVLVHCIHAYLHFRILVGLQCMT | 33700
MPTPSFFCFFLLFLSPMLNMRGDTFTAPLIFSFFVFFFFFFMLSLHFLLVFFS | 46400
MFFPLVLSKMLICVSFLPVTLLISYLSFFFLFFTGLGLGATAFFFFTFLLYFS | 42100
TAPSATSAAALVTSPATALRVAMVVSRAAAPAAATTVPARARPATPAVVSATC | 51300
VHLGVLFTLSIPYVRLWLIPRLFVCIFVRAFLFLLLFSGIVYPEFFFFFFFLR | 40800
LQQTKRQHSAPSQISANENNIYNLGTLEEFVSSGDLTDLYHTLWNDNTSYPFL | 128000
MEASFYFSSSSFCSAFLFFYFFILFFWGGFPLFPSQLFLSLSLLFIHTLSLFP | 26700
LWNSYLQSMDDTTGKNSGNYQQVDNDDNMSLLNLPILEETVSSGQDDKVEPDE | 54600
PFLFKITVLYVLEVIDGILDVSRFFPAVQLELCCLMFLWCCCGMVLLWFCLTR | 58800
AAPAPAKRTAAAAGLEEAAASGELSKSQKKKLNKKLKGENGEAAAAPVAAAPS | 30900
MLLFSKLYYEAVGVGCLSYFDFQSLQVWVLDICASWYFVLAFNSYFVVSLFFG | 36200
